# Measurements published in patent US20240252631A1, “METHODS OF USING ACTIVIN RECEPTOR TYPE II SIGNALING INHIBITORS” (Keros Therapeutics, Inc., priority 2021, published 2024).
# Where a chain is given by its changes, count along the chain named. Entries after “also recorded” stand apart in the source; their conditions may differ.
# B1: activin A: ActRII ligand of the TGF-β superfamily used to treat bone marrow cells ex vivo (protein, UniProt P08476 311-426, looked up)
# Inhibin beta A chain: GLECDGKVNICCKKQFFVSFKDIGWNDWIIAPSGYHANYCEGECPSHIAGTSGSSLSFHSTVINHYRMRGHSPFANLKSCCVPTKLRPMSMLYYDDGQNIIKKDIQNMIVEECGCS
# B2: SEQ ID NO: 85: ActRIIA variant with substitution of alanine (A) for lysine (K) at X17 (protein)
# chain: GAILGRSETQECLFYNANWELERTNQTGVERCEGEKDKRLHCYATWRNISGSIEIVAKGCWLDDFNCYDRTDCVETEENPQVYFCCCEGNMCNEKFSYFPEMEVTQPTS
# B3: ActRIIA/B-mFc: SEQ ID NO: 69 fused to a mouse Fc domain by way of a linker (protein)
# chain: B2 chain with A57K
# modifications: left off: a dimerising Fc or GST
# How the values were obtained:
# [1] = tested on: C57BI/6 mice; experiment: ActRIIA/B-mFc in combination with ruxolitinib (ruxolitinib-induced anemia); type: in vivo, mouse
# Method: To examine whether treatment with ActRIIA/B-mFc can overcome ruxolitinib-induced anemia, a pharmacological assessment was conducted in mice. Ten- to twelve-week-old, female, C57BI/6 mice were dosed orally with either vehicle (n=10) or ruxolitinib at 90 mg/kg (n=20) or 120 mg/kg (n=20) twice daily. After 37 days of ruxolitinib therapy, blood was sampled via cheek bleed for hematological assessment. On Day 41, mice from each ruxolitinib dose were divided into two groups that received either TBS (vehicle) (n=10) or ActRIIA/B-mFc (7.5 mg/kg, n=10 per group), IP twice weekly for 14 days concomitant to continued ruxolitinib dosing. Hematological parameters were assessed in whole blood with the use of a Heska Element HT5 veterinary hematology analyzer.
# [2] = molecular target: ActRIIB (Homo sapiens, UniProt Q13705); conditions: Townson et al., J. Biol. Chem. 287:27313, 2012; cited from earlier work
# ActRIIB, sequence (Q13705 19-512, species assumed): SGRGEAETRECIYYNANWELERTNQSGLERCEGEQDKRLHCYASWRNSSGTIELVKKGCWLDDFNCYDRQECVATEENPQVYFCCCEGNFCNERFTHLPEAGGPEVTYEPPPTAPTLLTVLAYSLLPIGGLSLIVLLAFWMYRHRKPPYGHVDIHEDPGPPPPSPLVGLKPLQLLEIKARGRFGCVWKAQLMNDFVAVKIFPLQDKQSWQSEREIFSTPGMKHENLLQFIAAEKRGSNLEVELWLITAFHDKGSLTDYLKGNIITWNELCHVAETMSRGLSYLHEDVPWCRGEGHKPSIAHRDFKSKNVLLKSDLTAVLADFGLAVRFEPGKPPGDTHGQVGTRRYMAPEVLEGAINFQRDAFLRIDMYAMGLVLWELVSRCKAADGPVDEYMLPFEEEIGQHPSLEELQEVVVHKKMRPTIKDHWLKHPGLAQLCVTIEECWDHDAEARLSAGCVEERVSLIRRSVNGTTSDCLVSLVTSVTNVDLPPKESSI
# [3] = tested on: Bone marrow cells from 11-week-old C57BI/6 mice; experiment: Ex-vivo treatment of bone marrow cells, ploidy of megakaryocyte precursors by flow cytometry; type: cell-based, mouse; conditions: six days
# Method: Bone marrow cells from 11-week-old C57BI/6 mice were isolated and treated with Activin A ([…]), ActRIIA/B-mFc ([…]), or a combination of both for six days. Cells were harvested after six days and analyzed using flow cytometry (N=2).
# [4] = Activity in vivo of ActRIIA variant substituted at X17; conditions: substitution of alanine (A) for lysine (K) at X17
# [5] = tested on: C57BI/6 mice; experiment: Effect of ActRIIA/B-mFc on platelets and bone marrow megakaryocyte progenitors 12 hours post-dose; type: in vivo, mouse; conditions: single dose 10 mg/kg IP
# Method: Eleven-week-old C57BI/6 mice were dosed with either TBS (Vehicle) or ActRIIA/B-mFc (10 mg/kg) via intraperitoneal (IP) administration. Twelve hours post-dose whole blood was sampled, and platelet counts were determined using a veterinary hematology analyzer (Heska Element HT5). Mice were then euthanized, and bone marrow extracted from the femurs. Bone marrow cells were stained with antibodies against Lineage (Perc-Cy5), sca1 (BV525), cKit (Alexa750), CD41 (APC) and CD150 (Pcy7) and analyzed on flow cytometer (Cytoflex, Beckman coulter). Megakaryocyte progenitors were gated on Lin−; sca1−; ckit+; CD150+; CD41+ cells.
# [6] = tested on: C57BI/6 mice; experiment: Effect of ActRIIA/B-mFc on megakaryocyte maturation (CD41+ cells and ploidy by flow cytometry); type: in vivo, mouse; conditions: 10 mg/kg, bone marrow
# Method: Eleven-week-old C57BI/6 mice were dosed with either TBS (Vehicle) or ActRIIA/B-mFc (10 mg/kg) via IP administration. Twelve and twenty-four hour later mice were euthanized and bone marrow extracted from the femurs. Bone marrow cells were fixed in ethanol following by a staining with Propidium lodide (PI) and anti CD41 (FITC, Efferet) antibody in parallel with RNAse treatment. Samples were analyzed by flow cytometer (Cytoflex, Beckman coulter). Ploidy of CD41+ nucleated cells (PI+ cells) was analyzed. Graphs represent % cells at each ploidy stage. For 12HR N=3 and for 24HR N=2. For CD41+ cells at 12HR time point a t-test was performed for statistical analysis. Data are presented as mean±SEM.
# [7] = tested on: mouse model of immune thrombocytopenia; experiment: Platelet recovery following anti-GP1bα platelet depletion; type: in vivo
# Method: Twelve-week-old mice were treated with either anti-GP1bα (0.08 mg/kg, Efferet) or IgG control. At day 4 after treatment, the anti-GP1bα treated group was further divided to receive either vehicle or ActRIIA/B-mFc (7.5 mg/kg) treatment. Platelets were measured at indicated time points post anti-GP1bα dosing. At day 10 post-treatment, mice were euthanized and bone marrow cells were harvested. Bone marrow cells were fixed in ice-cold 100% ethanol and stained with Propidium lodide (PI) (200 μg/mL, Sigma-Aldrich) and anti-CD41 (FITC conjugated, Emfret Analytics) antibody in parallel with RNase treatment (2 mg/ml, Invitrogen). Samples were analyzed by flow cytometer (Cytoflex, Beckman coulter) and % CD41+ nucleated cells (PI+ cells) was measured.
# [8] = tested on: C57BI/6 mice; experiment: Effect of a single dose of ActRIIA/B-mFc on platelet numbers at day 37, 51 and 85; type: in vivo, mouse; conditions: single dose 10 mg/kg subcutaneous
# Method: Eleven-week-old C57BI/6 mice were given a single dose of either TBS (vehicle) or ActRIIA/B-mFc (10 mg/kg) via subcutaneous administration. Separate cohorts of mice from both dosing groups were sampled for whole blood at study day 37, 51 and 85, and platelet counts were determined using a veterinary hematology analyzer (Heska Element HT5).
# [9] = tested on: C57BI/6 male mice; experiment: Effect of an anti-activin A antibody on platelet numbers 24 hours post-dose; type: in vivo, mouse; conditions: intraperitoneal, anti-activin A 5 mg/kg, ActRIIA/B-mFc 10 mg/kg, vs TBS
# Method: Ten-week-old C57BI/6 male mice were dosed with either TBS (vehicle), anti-activin A antibody (described in WO2008031061A2, 5 mg/kg), or ActRIIA/B-mFc (10 mg/kg) via intraperitoneal administration. Twenty-four hours post-dose whole blood was sampled, and platelet counts were determined using a veterinary hematology analyzer (Hematrue).
# [10] = tested on: TPO^high model of myelofibrosis; experiment: TPO^high model of myelofibrosis: platelets, red blood cell parameters, spleen weight, immune cells; type: in vivo, mouse
# Method: The TPO^high model of myelofibrosis induces a myelofibrotic-like pathology through elevated exposure to thrombopoietin, the native endocrine inducer of megakaryocyte progenitor proliferation and development. Seven-week-old C57BI/6 albino mice (B6(Cg)-Tyr, Jackson Laboratory) were teil-vein injected with 0.75 mg/kg thrombopoietin (TPO) expressing plasmid cloned into pLEV113 plasmid (Lake Pharma). The injection was done in hydrodynamic approach in which 100 ml/kg volume is injected in a short period of time (6-10 seconds). On day 3 after TPO injection mice were divided into 2 groups receiving either vehicle (TBS) or ActRIIA/B-mFc (7.5 mg/kg), twice weekly. Mice were sacrificed on day 14 after TPO injection. Hematological parameters were measured using the Heska Element HT5 veterinary hematology analyzer.
# [11] = ruxolitinib alone, 90 or 120 mg/kg orally twice daily, after 37 days
# [12] = 7.5 mg/kg twice weekly from day 3, day 14 after TPO injection
# [13] = 7.5 mg/kg IP twice weekly for 14 days, continued ruxolitinib
molecule,measurement,setting,value
"N#CC[C@H](C1CCCC1)n1cc(-c2ncnc3[nH]ccc23)cn1 [ruxolitinib, reference compound]",RBC volume,[1]; [11],reduced
same,hematocrit,[1]; [11],reduced
same,hemoglobin,[1]; [11],reduced
"BMP9: bone morphogenetic protein, ligand in the TGF-β superfamily",binding affinity for ActRIIB relative to ActRIIA,[2],about 300 fold
B1,2N ploidy levels,[3]; Activin A (5 mg/kg),increased
same,extent of polyploidy (higher ploidy levels),[3]; Activin A (5 mg/kg),reduced
B2,activity in vivo,[4],reduced activity
B3,bone marrow megakaryocyte progenitors,"[5]; Lin-, sca1-, ckit+, CD150+, CD41+ cells",increased
same,circulating platelet numbers,[5]; vs TBS vehicle,increased
same,number of CD41+ megakaryocyte progenitors,[6]; 12 hours after treatment,increase
same,number of polyploid megakaryocytes,[6]; by 24 hours,increase
same,recovery of platelet numbers following platelet depletion,"[7]; 7.5 mg/kg at day 4 after anti-GP1bα (0.08 mg/kg), compared to vehicle treated mice",accelerated recovery
same,increase in the number of CD41+ megakaryocyte progenitors in the bone marrow compared to the vehicle-treated group,"[7]; 7.5 mg/kg, day 10 after platelet depletion",25%
same,4N ploidy level,"[7]; 7.5 mg/kg, day 10 after platelet depletion, vs vehicle",higher
same,duration of increased circulating platelets after a single dose,[8],at least 85 days
same,circulating platelets,"[8]; day 37, 51 and 85",increased
same,activin-mediated changes in megakaryocyte precursors (ploidy),[3]; ActRIIA/B-mFc (10 mg/kg) with Activin A (5 mg/kg),reversed
same,platelets in wild-type mice,[9],increased
same,"RBC metrics (red blood cells, hemoglobin, hematocrit, mean corpuscular hemoglobin concentration)",[10]; [12],significant improvement
same,TPO-mediated increase in lymphocytes,[10]; [12],reduced
same,TPO-mediated increase in white blood cells,[10]; [12],reduced
same,development of anemia,[10]; [12],reduce
same,expansion of platelets,[10]; [12],significant attenuation; also recorded: attenuated
same,splenomegaly,[10]; [12],significant reduction
same,splenic extra medullary hematopoiesis,"[10]; inferred from splenomegaly, 7.5 mg/kg twice weekly, day 14",reduced
same,ruxolitinib-associated reduction in RBC volume,[1]; [13],abrogated
same,ruxolitinib-associated reduction in hematocrit,[1]; [13],abrogated
same,ruxolitinib-associated reduction in hemoglobin,[1]; [13],abrogated
same,body weight in mice treated with ruxolitinib,[1]; ActRIIA/B-mFc 7.5 mg/kg IP twice weekly for 14 days with ruxolitinib 90 or 120 mg/kg twice daily,increased
